Results as given in US20180186873A1 (CEPHALON, published 2018).
Like-named read-outs stand apart in the source and are kept apart here. One block for each binder: values may come before it.

Legend:
[1] = target: T1, recombinant human IL-5 (human, UniProt P05113 20-134); assay: cell-based or functional assay
[2] = target: cynomolgus monkey IL-5 (cynomolgus monkey); assay: cell-based or functional assay
[3] = target: T1, recombinant human IL-5; assay: SPR
[4] = target: T1, recombinant human IL-5; assay: SPR; remark: listed apart in the source
[5] = target: T2, recombinant human IL-5 (human, UniProt P05113 20-134); assay: Biacore SPR, purified Ab captured on Protein A, IL-5 injected, run 1.2
[6] = target: T2, recombinant human IL-5; assay: Biacore SPR, purified Ab captured on Protein A, IL-5 injected, run 2.1
[7] = target: T2, recombinant human IL-5
[8] = target: T2, recombinant human IL-5; remark: listed apart in the source
[9] = target: T2, recombinant human IL-5; remark: listed apart in the source
[10] = target: T2, recombinant human IL-5; remark: listed apart in the source
[11] = target: T2, recombinant human IL-5; remark: listed apart in the source
[12] = target: T2, recombinant human IL-5; remark: listed apart in the source
[13] = target: T2, recombinant human IL-5; remark: listed apart in the source
[14] = target: T2, recombinant human IL-5; remark: listed apart in the source
[15] = target: T3, recombinant human IL-5 (human, UniProt P05113 20-134); assay: SPR Biacore, purified Ab on Protein A chip, IL-5 analyte, run 2.2
[16] = target: T3, recombinant human IL-5; assay: SPR Biacore, purified Ab on Protein A chip, IL-5 analyte, run 3.1
[17] = target: T3, recombinant human IL-5; remark: listed apart in the source
[18] = target: T3, recombinant human IL-5; remark: listed apart in the source
[19] = target: T3, recombinant human IL-5; remark: listed apart in the source
[20] = target: T3, recombinant human IL-5; remark: listed apart in the source
[21] = target: T3, recombinant human IL-5; remark: listed apart in the source
[22] = target: T3, recombinant human IL-5; remark: listed apart in the source
[23] = target: T3, recombinant human IL-5; remark: listed apart in the source
[24] = target: T3, recombinant human IL-5; remark: listed apart in the source
[25] = target: T3, recombinant human IL-5; remark: listed apart in the source
[26] = target: T3, recombinant human IL-5; remark: listed apart in the source

IC50, inhibition of IL-5 driven proliferation of TF-1.6G4 cells (Mean, pM) [1]: 13.8 pM
IC50, inhibition of IL-5 driven proliferation of TF-1.6G4 cells (Mean, pM) [2]: 43.8 pM
Kd [3]: 0.0194 nM
koff [3]: 1.58e-05 s⁻¹
kon [3]: 816000 M⁻¹ s⁻¹
Kd [4]: 0.0217 nM
koff [4]: 1.84e-05 s⁻¹
kon [4]: 849000 M⁻¹ s⁻¹
B1: 3A5.046 (antibody, human IgG4 S228P, lambda)
heavy: QVQLQESGPGLVKPSQTLSLTCTVSGGSISNGGYYWSWIRQHPGKGLEWIGYIYYSGSTYYNPSLKSRVTISVDTSKNQFSLKLSSVTAADTAVYYCASLGNWFDYWGQGTLVTVSSASTKGPSVFPLAPCSRSTSESTAALGCLVKDYFPEPVTVSWNSGALTSGVHTFPAVLQSSGLYSLSSVVTVPSSSLGTKTYTCNVDHKPSNTKVDKRVESKYGPPCPPCPAPEFLGGPSVFLFPPKPKDTLYITREPEVTCVVVDVSQEDPEVQFNWYVDGVEVHNAKTKPREEQFNSTYRVVSVLTVLHQDWLNGKEYKCKVSNKGLPSSIEKTISKAKGQPREPQVYTLPPSQEEMTKNQVSLTCLVKGFYPSDIAVEWESNGQPENNYKTTPPVLDSDGSFFLYSRLTVDKSRWQEGNVFSCSVMHEALHNHYTQKSLSLSLG
light: SYVLTQPPSVSVAPGQTARITCGGNNIGSKNVYWYQQKPGQAPVLVVHDDSDRPSGIPERFSGSNSGNTATLTISRVEVGDEADYSCQVWDSSSDHVVFGGGTKLTVLGQPKAAPSVTLFPPSSEELQANKATLVCLISDFYPGAVTVAWKADSSPVKAGVETTTPSKQSNNKYAASSYLSLTPEQWKSHRSYSCQVTHEGSTVEKTVAPTECS

Kd [5]: 0.151 nM
koff [5]: 0.000111 s⁻¹
kon [5]: 735000 M⁻¹ s⁻¹
Kd [6]: 0.142 nM
koff [6]: 0.000105 s⁻¹
kon [6]: 737000 M⁻¹ s⁻¹
Kd [7]: 0.18 nM
koff [7]: 0.000133 s⁻¹
kon [7]: 740000 M⁻¹ s⁻¹
Kd [8]: 0.115 nM
koff [8]: 8.22e-05 s⁻¹
kon [8]: 714000 M⁻¹ s⁻¹
Kd [9]: 0.139 nM
koff [9]: 0.000101 s⁻¹
kon [9]: 728000 M⁻¹ s⁻¹
Kd [10]: 0.15 nM
koff [10]: 0.00011 s⁻¹
kon [10]: 732000 M⁻¹ s⁻¹
Kd [11]: 0.129 nM
koff [11]: 9.36e-05 s⁻¹
kon [11]: 727000 M⁻¹ s⁻¹
Kd [12]: 0.163 nM
koff [12]: 0.000116 s⁻¹
kon [12]: 713000 M⁻¹ s⁻¹
Kd [13]: 0.143 nM
koff [13]: 0.000104 s⁻¹
kon [13]: 728000 M⁻¹ s⁻¹
Kd [14]: 0.163 nM
koff [14]: 0.000116 s⁻¹
kon [14]: 713000 M⁻¹ s⁻¹
B2: 3A5.040 (antibody, human IgG4 S228P, lambda)
heavy: not shown
light: SYVLTQPPSVSVAPGQTARITCGGNNIGSKNVYWYQQKPGQAPVLVVHDDSDRPSGIPERFSGSNSGNTATLTISRVEVGDEADYSCQVWDSSSDHVVFGGGTKLTVLGQPKAAPSVTLFPPSSEELQANKATLVCLISDFYPGAVTVAWKADSSPVKAGVETTTPSKQSNNKYAASSYLSLTPEQWKSHRSYSCQVTHEGSTVEKTVAPTECS

Kd [15]: 0.133 nM
koff [15]: 0.000106 s⁻¹
kon [15]: 793000 M⁻¹ s⁻¹
Kd [16]: 0.174 nM
koff [16]: 0.00014 s⁻¹
kon [16]: 807000 M⁻¹ s⁻¹
Kd [17]: 0.135 nM
koff [17]: 0.000105 s⁻¹
kon [17]: 777000 M⁻¹ s⁻¹
Kd [18]: 0.138 nM
koff [18]: 0.000109 s⁻¹
kon [18]: 789000 M⁻¹ s⁻¹
Kd [19]: 0.177 nM
koff [19]: 0.000137 s⁻¹
kon [19]: 772000 M⁻¹ s⁻¹
Kd [20]: 0.171 nM
koff [20]: 0.000132 s⁻¹
kon [20]: 772000 M⁻¹ s⁻¹
Kd [21]: 0.148 nM
koff [21]: 0.000115 s⁻¹
kon [21]: 776000 M⁻¹ s⁻¹
Kd [22]: 0.134 nM
koff [22]: 0.000103 s⁻¹
kon [22]: 773000 M⁻¹ s⁻¹
Kd [23]: 0.149 nM
koff [23]: 0.000114 s⁻¹
kon [23]: 769000 M⁻¹ s⁻¹
Kd [24]: 0.153 nM
koff [24]: 0.00012 s⁻¹
kon [24]: 784000 M⁻¹ s⁻¹
Kd [25]: 0.15 nM
koff [25]: 0.000117 s⁻¹
kon [25]: 779000 M⁻¹ s⁻¹
Kd [26]: 0.151 nM
koff [26]: 0.000117 s⁻¹
kon [26]: 775000 M⁻¹ s⁻¹
B3: 3A5.040 (antibody, human IgG4 S228P, lambda)
heavy: not shown
light: SYVLTQPPSVSVAPGQTARITCGGNNIGSKNVYWYQQKPGQAPVLVVHDDSDRPSGIPERFSGSNSGNTATLTISRVEVGDEADYSCQVWDSSSDHVVFGGGTKLTVLGQPKAAPSVTLFPPSSEELQANKATLVCLISDFYPGAVTVAWKADSSPVKAGVETTTPSKQSNNKYAASSYLSLTPEQWKSHRSYSCQVTHEGSTVEKTVAPTECS
